Assay results: PMC6811742, “No interactions between heparin and atacicept, an antagonist of B cell survival cytokines” (British Journal of Pharmacology, 2019)

B1: Atacicept (TACI (30–110)‐Fc) (Fc fusion, human, UniProt O14836 30-110, looked up)
chain: AMRSCPEEQYWDPLLGTCMSCKTICNHQSQRTCAAFCRSLSCRKEQGKFYDHLLRDCISCASICGQHPKQCAYFCENKLRS
notes: also called TACI‐Fc; dimeric atacicept; source: provided by Merck (Darmstadt, Germany); also in sera of human subjects after 150 mg subcutaneously
B2: Flag‐ACRP‐hAPRIL (ligand)
chain: not shown
notes: linker after the Flag tag; human ACRP30 (adiponectin), residues 16-108; linker; human APRIL, residues 105-250, starting at alanine 105 just after the furin cleavage site; also called Flag‐APRIL; ps1088; source: HEK293 cells, purified on anti‐Flag agarose

Columns and labels:
Flag‐mBAFF = target: T1, Flag‐mBAFF (mouse, UniProt Q9WU72 127-309); assay: AlphaScreen or HTRF; AlphaLISA of atacicept diluted in mouse plasma with a matched pair of anti‐TACI antibodies (biotinylated ATA2, ATA3 acceptor beads), with or without recombinant mouse BAFF, with or without acid dissociation; conversely AlphaLISA of mouse BAFF in Baff−/− serum with 0, 100 or 2000 ng/ml atacicept; conditions: both partners purified
T1 construct: linker after the Flag tag; mouse BAFF, residues 127-309; that it is Flag‐mBAFF (ps657) is surmised; Encoded with an HA signal before the Flag tag; also called recombinant mouse BAFF; mouse BAFF

[1] = target: B1; assay: ELISA; plates coated with atacicept at 1 μg/ml in PBS, blocked, incubated with the indicated concentrations of Flag‐APRIL; revealed with anti‐Flag reagents; conditions: both partners purified

T1 sequence (Q9WU72 other isoform, or with tags, fused parts or gaps): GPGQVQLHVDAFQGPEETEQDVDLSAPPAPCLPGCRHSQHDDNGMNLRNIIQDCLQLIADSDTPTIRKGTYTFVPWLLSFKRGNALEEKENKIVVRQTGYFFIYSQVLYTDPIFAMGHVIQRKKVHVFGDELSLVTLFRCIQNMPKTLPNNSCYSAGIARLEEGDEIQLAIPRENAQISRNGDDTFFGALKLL

Row | binding result (Flag‐mBAFF) | binding result [1] | Binder
1 | binds |  | B1
2 |  | binds | B2
